US20230118024A1 (Chugai, published 2023)

T1: recombinant HLA-DQ2.5/33mer gliadin peptide complex (human; wheat)
T1 construct: also called soluble HLA-DQ2.5/33mer gliadin peptide complex
T1 alpha: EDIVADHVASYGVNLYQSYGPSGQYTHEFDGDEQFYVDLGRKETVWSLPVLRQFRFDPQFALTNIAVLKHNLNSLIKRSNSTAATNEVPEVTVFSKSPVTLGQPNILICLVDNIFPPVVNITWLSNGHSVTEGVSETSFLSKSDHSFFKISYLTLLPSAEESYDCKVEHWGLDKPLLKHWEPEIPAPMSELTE
T1 beta: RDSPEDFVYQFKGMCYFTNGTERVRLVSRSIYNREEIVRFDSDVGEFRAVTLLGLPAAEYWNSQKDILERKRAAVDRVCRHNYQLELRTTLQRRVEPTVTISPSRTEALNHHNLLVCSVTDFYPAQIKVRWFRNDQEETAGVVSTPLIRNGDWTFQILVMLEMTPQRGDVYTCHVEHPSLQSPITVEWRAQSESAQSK
T1 peptide: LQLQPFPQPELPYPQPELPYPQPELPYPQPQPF


Assays:
[1] = target: T2, HLA-DQ2.5/33mer gliadin peptide complex on Ba/F3 cells (human; wheat); test: FACS
T2 construct: also called Ba/F3-HLA-DQ2.5/33mer gliadin peptide; HLA-DQ2.5/gliadin peptide complex

[2] = target: T3, HLA-DQ2.5/CLIP peptide complex on Ba/F3 cells (human); test: FACS
T3 construct: also called Ba/F3-HLA-DQ2.5/CLIP peptide

[3] = target: T4, HLA-DQ2.5/alpha 1 gliadin peptide complex on Ba/F3 cells (human; wheat); test: FACS
T4 construct: also called Ba/F3-HLA-DQ2.5/alpha 1 gliadin peptide

[4] = target: T5, HLA-DQ2.5/omega 2 gliadin peptide complex on Ba/F3 cells (human; wheat); test: FACS
T5 construct: also called Ba/F3-HLA-DQ2.5/omega 2 gliadin peptide

[5] = target: T6, HLA-DQ2.5/omega 1 gliadin peptide complex on Ba/F3 cells (human; wheat); test: FACS
T6 construct: also called Ba/F3-HLA-DQ2.5/omega 1 gliadin peptide

[6] = target: T7, HLA-DQ2.5/secalin 1 peptide complex on Ba/F3 cells (human; rye); test: FACS
T7 construct: also called Ba/F3-HLA-DQ2.5/secalin 1 peptide

[7] = target: T8, HLA-DQ2.5/secalin 2 peptide complex on Ba/F3 cells (human; rye); test: FACS
T8 construct: also called Ba/F3-HLA-DQ2.5/secalin 2 peptide

[8] = target: T9, HLA-DQ2.5/alpha 2 gliadin peptide complex on Ba/F3 cells (human; wheat); test: FACS
T9 construct: also called Ba/F3-HLA-DQ2.5/alpha 2 gliadin peptide

[9] = target: T2, HLA-DQ2.5/33mer gliadin peptide complex …; test: cell-based or functional assay
[10] = target: T1, recombinant HLA-DQ2.5/33mer gliadin …; test: SPR, Ab captured, 37 C, pH 7.4
[11] = target: T10, HLA-DQ2.5/alpha 1b gliadin peptide complex on Ba/F3 cells (human; wheat); test: FACS
T10 construct: also called Ba/F3-HLA-DQ2.5/alpha 1b gliadin peptide

| Binder | FIG. 30 FACS value (IC17=0, DQN0139bb=100) [1] | FIG. 30 FACS value (IC17=0, DQN0139bb=100) [2] | FIG. 30 FACS value (IC17=0, DQN0139bb=100) [3] | FIG. 30 FACS value (IC17=0, DQN0139bb=100) [4] | FIG. 30 FACS value (IC17=0, DQN0139bb=100) [5] | FIG. 30 FACS value (IC17=0, DQN0139bb=100) [6] | FIG. 30 FACS value (IC17=0, DQN0139bb=100) [7] | FIG. 30 FACS value (IC17=0, DQN0139bb=100) [8] | IC50 (read off the curve) [9] | Kd [10] | FIG. 30 FACS value (IC17=0, DQN0139bb=100) [11] |
| --- | --- | --- | --- | --- | --- | --- | --- | --- | --- | --- | --- |
| DQN0235ee (antibody, human IgG1, kappa, V domains shown, also called DQN0235He; DQN0235Le) VH: QQQLEESGGGLVKPGGTLTLTCKAGIDFSTYYYMCWVRQAPGKRPEWIACIFDGDGSTYYASWVNGRFTISKASSTTVTLRMTSLTAADTATYFCARSAGGSSSFGYFNLWGPGTLVTVSS VL: AYDMTQTPSSVSAAVGGTVTIKCQASQSISSSYLAWYHQKPGQSPKLLIYSASTLASGVPSRFKGSGSGTEFTLTISDLACADAATYYCQSYYYFSSNAWHTFGGGTKVEIKR | 70.1 | 82 | 52.3 | 78.8 | 75.2 | 73.4 | 71.1 | 81.3 |  |  |  |
| DQN0370hh (antibody, human IgG1, kappa, V domains shown, also called DQN0370Lh) VH: QSLEESGGGLVKPGGPLTLTCTASGFSFSSAYYMCWVRQAPGKGLEWIACIYVGSGSTYYTSWAKGRFTISKVSSTTMTLQMTSLTAADTATYFCARDPLIYYYYGELNLWGPGTLVTVSS VL: AVVLTQTASPVSAPVGGTVTIKCQASEDIYSNLAWYQQKPGQRPKVLIYSASTLASGVSSRFKGSRSGTEYTLSITDLGCADAATYYCQAYYDIGGVTFGGGTKVEIKR | 107 | 1 | 91.2 | 65.8 | 73.7 | 79.2 | 68.1 | 83.7 | ~0.3 µg/mL | 4.47 nM | 79.2 |
| DQN0223hh (antibody, human IgG1, kappa, V domains shown, also called DQN0223Lh) VH: QQQLEESGGGLVKPGGTLTLTCKASRIDFSTYYYICWVRQSPWKGLEWIACIYSGDGYTYYPSWAKGRFSISKTSSTTVTLQVTSLTAADTATYFCARSYGGSSASAYFTLWGPGTQVTVSS VL: AVVLTQTASPVSAPVGGTVTIKCQASQSIGSNLGWYQQKPGQPPKLLIYGASALASGVPSRFKGSGSGTQFTLTINDLECADAATYYCQGYYYSSSAEWHSFGGGTKVEIKR | 59.5 | 60.2 | 27.9 | 59 | 46 | 47.6 | 48.4 | 46.8 |  |  | 36 |
| DQN0303hh (antibody, human IgG1, kappa, V domains shown, also called DQN0303Lh) VH: QQHLEESGGGLVKPGGTLTLTCTASGIDFSSYYYMCWVRQAPGKGLEWIACIYTGDGSTYYASWVNGRFTISRSTSLNTVTLQLNGLAAADTATYFCARSYGASSAIGYFNLWGPGTLVTVSS VL: DVVMTQTPSSKSAAVGGTVTIKCQASQNIYSNLAWYQQKPGQRPKLLIYEASTLASGVPSRFRGSGSGTEFTLTISDLECDDAATYYCQNYYYTSSNDFYTFGGGTKVEIKR | 72.8 | 80 | 51.4 | 91.7 | 56.2 | 64.5 | 59.4 | 62.6 |  |  | 41.5 |
| DQN0333hh (antibody, human IgG1, kappa, V domains shown, also called DQN0333Lh) VH: QSVEESGGRLVMPGGSLTLTCTASGFSLSSYYMNWVRQAPGKGLEWIGVIYSTDITDYATWATGRFTISKTSTTVDLKMTSLTAADTATYFCARELSPTTSGYIAYLWGPGTLVTVSS VL: AYDMTQTPASVEVAVGGTVTIKCQASQSISSYLAWYQQKPGQPPKLLIYSASTLASGVPSRFKGSGSGTQFTLTVIDVQCDDAATYYCQQTYSGKNVINTFGGGTKVEIKR | 106 | 116 |  | 128 | 106 | 110 | 106 | 118 |  |  | 108 |
| DQN0344xx (antibody, human IgG1, kappa, V domains shown, also called DQN0344Hx; DQN0344Lx) VH: QSLEESGGGLVKPGGTLTLTCTASGFSFSSSYWMCWVRQAPGKGLEWVACVYGGSDTTYYASWTKGRFTISKGSSTTVALQVTSLTAADTATYFCARDPLNYYYYGELNLWGPGTLVTVSS VL: AVVLTQTASPVSAAVGGTVTIRCQATENIYSGLAWYQQKPGQPPKVLIYYVSTLASGVPSRFKGSGSGTEYTLTISGVQCDDAATYYCQTYHDISNVTFGGGTKVEIKR | 106 |  | 89.7 | 3.7 | 68.8 | 73.9 | 60.6 | 81.9 | ~0.3 µg/mL |  | 75.3 |
| DQN0356bb (antibody, human IgG1, kappa, V domains shown, also called DQN0356Hb; DQN0356Lb) VH: QEQLVESGGGLVKPEGSLTLTCTASGFSFSSDYSVCWVRQAPGKGLEWIGCIYTGSDITYYASWAKGRFTISKTSSTTVTLQMTSLTAADTATWFCARSWNGYGGYADLWGPGTLVTVSS VL: AYDMAQTPASVEVAVGGTVTIKCQASQSIDNYLAWYQQKPGQPPKLLIYWASTLASGVSSRFKGSGSGTQFSLTISDLECADAATYYCQQYYSNSNVVNTFGGGTKVEIKR | 91.1 | 98.3 | 94.9 | 68.8 | 76 | 74.5 | 77.8 | 85.6 |  |  | 88 |
